For test [1], the target named is pure human c-JUN protein (full length, Promega) (human) (UniProt P05412). In words: laser fluorescence quenching assay, 1 µg antibody + 1 µg c-JUN + 0.075 pmole JD1F/2F, 50 mM NaCl.
The target is the same in test [2]. The test can be described thus: laser fluorescence quenching assay, 5 µg antibody + 1 µg c-JUN + 0.075 pmole JD1F/2F, 50 mM NaCl.
The target is the same in test [3]. The test can be described thus: laser fluorescence quenching assay, 750 ng antibody + 250 ng c-JUN + 0.075 pmole JD1F/2F, 50 mM NaCl.
For test [4] the target is unchanged. The test can be described thus: laser fluorescence quenching assay, 1 µg antibody + 1 µg c-JUN + 0.075 pmole JD1F/2F, 50 mM NaCl (c-JUN:DNA alone 25%).
For test [5] the target is unchanged. The test can be described thus: laser fluorescence quenching assay, 5 µg antibody + 1 µg c-JUN + 0.075 pmole JD1F/2F, 50 mM NaCl (c-JUN:DNA alone 25%).
Test [6] shares this target. In words: laser fluorescence quenching assay, 750 ng antibody + 250 ng c-JUN + 0.075 pmole JD1F/2F, 50 mM NaCl (c-JUN:DNA alone 11%).

Chain of UniProt P05412 (P05412 whole entry): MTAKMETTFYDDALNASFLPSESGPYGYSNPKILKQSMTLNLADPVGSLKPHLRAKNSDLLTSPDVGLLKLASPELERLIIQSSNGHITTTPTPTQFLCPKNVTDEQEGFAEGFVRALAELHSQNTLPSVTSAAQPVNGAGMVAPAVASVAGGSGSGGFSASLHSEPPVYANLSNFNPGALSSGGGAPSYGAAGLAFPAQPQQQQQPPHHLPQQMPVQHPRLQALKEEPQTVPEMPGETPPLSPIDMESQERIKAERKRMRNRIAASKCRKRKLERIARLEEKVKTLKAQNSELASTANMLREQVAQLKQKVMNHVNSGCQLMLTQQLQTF

Turning to “monoclonal IgG1 antibody, c-JUN (KM-1) (Santa Cruz Biotechnology)”, the further decrease in fluorescent intensity from the c-JUN:DNA complex is 12% in test [1], 17% in test [2] and 16% in test [3]. Further, the figures for the decrease in fluorescent intensity compared to DNA alone in test [4], in test [5] and in test [6] were 37%, 42% and 27%, respectively.
